From patent US20120088722A1 (PROTEAPEX THERAPEUTICS, published 2012)
Ends that are not written are not given here.

Experiments:
[1] = target: T1, recombinant protein of the calcium-binding, EGF-like domains of LTBP1 (CE-LTBP1); experiment: fluorescent peptide (100 nM) binding to plate-dried recombinant CE-LTBP1, reference scrambled peptide
T1 construct: It was dried onto poly-L-lysine coated wells
Procedure: (§1) Peptide binding assay—Twenty-five micrograms of total equal protein from cartilage CHAPS extracts or five nanograms recombinant protein of the calcium-like EGF binding domain of LTBP1 (a kind gift of Sarah Dallas) or hypertrophic cartilage from day 17 avian embryo sterna and tibial growth plate cartilage from day 14 newborn rat pups were extracted with 0.5% CHAPS buffer and eluates immunoprecipitated with polyclonal antibody to LTBP1 and then samples were plated onto poly-L-lysine coated 96 well plates. After overnight drying, the protein-coated wells were incubated with 100 nM fluorescent-labeled peptide in Tris buffered saline [150 mM NaCl, 10 mM Tris, pH 8.0] and 20% horse serum for 4 hours at 16° C. After incubation, the wells are washed twice with binding buffer, the protein layer solubilized with 5N NaOH and fluorescence bound measured at 495 nm excitation and 520 nm emission on the LabSystems Fluoroskan Ascent CF plate reader. Statistical analyses and graphing were performed with Prism GraphPad software (ANOVA with Turkey's Analysis). A scrambled peptide of the same amino acid composition was prepared as a negative control. Competition assays were conducted in the presence of 10-fold more (1 μM) naked peptide.

[2] = target: T2, LTBP1 immunoprecipitated from avian hypertrophic cartilage (avian (chick embryo)); experiment: fluorescent peptide (100 nM) binding to plate-dried LTBP1 immunoprecipitate of avian hypertrophic cartilage, reference scrambled peptide
T2 construct: An immunoprecipitate: proteins associated with LTBP1 (TGFβ LLC components) may be present; also called hypertrophic cartilage immunoprecipitates
Procedure: as §1

[3] = target: T3, LTBP1 immunoprecipitated from rat tibial growth plate cartilage (rat, UniProt Q00918 21-1712, limits assumed); experiment: fluorescent peptide (100 nM) binding to plate-dried LTBP1 immunoprecipitate of rat tibial growth plate cartilage, reference scrambled peptide
T3 construct: An immunoprecipitate: proteins associated with LTBP1 may be present; also called rat tibial growth plate cartilage immunoprecipitated extracts
Procedure: as §1

T3 sequence (Q00918 21-1712 limits assumed): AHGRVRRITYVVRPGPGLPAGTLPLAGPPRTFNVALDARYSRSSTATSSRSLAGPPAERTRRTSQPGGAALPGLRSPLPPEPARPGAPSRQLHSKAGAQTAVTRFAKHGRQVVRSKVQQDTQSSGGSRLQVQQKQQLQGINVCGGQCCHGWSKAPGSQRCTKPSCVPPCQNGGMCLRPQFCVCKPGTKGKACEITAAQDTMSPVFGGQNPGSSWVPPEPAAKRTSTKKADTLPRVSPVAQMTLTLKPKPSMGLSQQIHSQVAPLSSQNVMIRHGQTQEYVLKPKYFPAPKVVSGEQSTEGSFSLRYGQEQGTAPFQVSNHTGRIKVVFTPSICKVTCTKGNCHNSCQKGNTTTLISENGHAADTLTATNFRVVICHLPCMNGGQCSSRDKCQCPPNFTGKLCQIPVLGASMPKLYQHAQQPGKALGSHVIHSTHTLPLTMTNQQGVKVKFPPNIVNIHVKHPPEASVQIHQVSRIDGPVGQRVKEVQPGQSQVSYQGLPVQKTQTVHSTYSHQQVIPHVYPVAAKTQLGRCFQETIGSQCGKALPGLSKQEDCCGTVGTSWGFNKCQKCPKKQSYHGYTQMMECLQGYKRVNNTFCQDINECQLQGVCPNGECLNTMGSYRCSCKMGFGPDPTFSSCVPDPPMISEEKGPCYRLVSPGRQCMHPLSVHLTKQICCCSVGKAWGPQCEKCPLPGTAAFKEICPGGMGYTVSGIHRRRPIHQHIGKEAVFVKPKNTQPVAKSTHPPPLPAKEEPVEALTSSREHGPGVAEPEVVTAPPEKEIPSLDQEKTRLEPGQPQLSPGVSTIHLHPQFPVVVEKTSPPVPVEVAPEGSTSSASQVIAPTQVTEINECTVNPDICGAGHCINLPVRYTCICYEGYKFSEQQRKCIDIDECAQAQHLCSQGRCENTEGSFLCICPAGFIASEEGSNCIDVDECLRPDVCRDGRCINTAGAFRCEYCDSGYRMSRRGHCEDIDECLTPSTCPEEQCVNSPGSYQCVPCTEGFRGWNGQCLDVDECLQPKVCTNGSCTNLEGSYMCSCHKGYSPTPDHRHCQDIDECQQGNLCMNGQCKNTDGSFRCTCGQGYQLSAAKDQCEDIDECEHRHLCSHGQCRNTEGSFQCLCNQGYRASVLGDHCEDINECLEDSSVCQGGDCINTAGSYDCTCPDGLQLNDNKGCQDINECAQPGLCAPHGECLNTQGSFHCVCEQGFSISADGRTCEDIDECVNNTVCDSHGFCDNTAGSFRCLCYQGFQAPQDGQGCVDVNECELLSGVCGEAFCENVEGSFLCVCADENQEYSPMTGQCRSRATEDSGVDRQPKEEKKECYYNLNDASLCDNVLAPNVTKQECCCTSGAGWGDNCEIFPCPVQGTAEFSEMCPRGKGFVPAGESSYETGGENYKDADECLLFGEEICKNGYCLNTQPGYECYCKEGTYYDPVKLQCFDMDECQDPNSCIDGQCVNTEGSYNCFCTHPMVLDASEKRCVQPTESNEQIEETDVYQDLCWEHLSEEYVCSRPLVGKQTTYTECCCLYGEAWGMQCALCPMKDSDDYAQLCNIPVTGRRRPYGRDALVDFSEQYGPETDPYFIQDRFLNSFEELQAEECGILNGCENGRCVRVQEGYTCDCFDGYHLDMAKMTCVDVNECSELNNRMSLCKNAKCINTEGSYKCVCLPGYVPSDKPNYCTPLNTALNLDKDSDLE

fold binding over scrambled peptide [1]: 27 fold
fold binding over scrambled control [3]: 3.9 fold
B1: MMP13-19 peptide (amino acids 93-111 of SEQ ID NO: 1) (peptide)
peptide: ELGLPKEVKKISAAVHFED
modifications: also: fluorescent-labeled in binding assay, label and position not given here
notes: also called MPP13-19; pxpt 001-1
fold binding over scrambled control [2]: 10.5 fold
